In publication PMC3407194 one finds Kd data, which are given here for one substance.

Experiment in all cases: primer extension with trap
Conditions in all cases: Primer extension: 50 mM Tris-HCl pH 8.0, 80 mM KCl, 6 mM MgCl2, 1 mM DTT, 0.1 mg/ml BSA, room temperature, 1 nM duplex; filter binding: Tris-HCl pH 8.0, 80 mM …

For one data set, the target named is HIV RT (HIV) (UniProt P04585+P04585).
In data set [1] the target is T1, Ty3 RT (Ty3 retrotransposon) (UniProt Q99315).
T1 sequence: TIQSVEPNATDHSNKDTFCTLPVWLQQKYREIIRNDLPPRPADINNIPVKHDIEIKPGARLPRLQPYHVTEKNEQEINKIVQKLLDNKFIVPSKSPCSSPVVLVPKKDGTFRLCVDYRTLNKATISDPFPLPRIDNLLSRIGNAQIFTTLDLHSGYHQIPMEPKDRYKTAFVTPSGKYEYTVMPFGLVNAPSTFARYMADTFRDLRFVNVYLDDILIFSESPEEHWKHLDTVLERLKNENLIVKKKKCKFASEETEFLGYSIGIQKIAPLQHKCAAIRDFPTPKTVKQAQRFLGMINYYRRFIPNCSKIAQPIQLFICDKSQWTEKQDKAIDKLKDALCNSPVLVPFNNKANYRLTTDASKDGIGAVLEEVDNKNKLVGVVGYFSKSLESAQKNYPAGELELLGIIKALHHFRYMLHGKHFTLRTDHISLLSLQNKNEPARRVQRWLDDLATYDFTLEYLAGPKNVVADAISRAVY

Data set [2] deals with T2, AMV RT (avian myeloblastosis virus) (UniProt Q83133+Q83133).
T2 sequence 1: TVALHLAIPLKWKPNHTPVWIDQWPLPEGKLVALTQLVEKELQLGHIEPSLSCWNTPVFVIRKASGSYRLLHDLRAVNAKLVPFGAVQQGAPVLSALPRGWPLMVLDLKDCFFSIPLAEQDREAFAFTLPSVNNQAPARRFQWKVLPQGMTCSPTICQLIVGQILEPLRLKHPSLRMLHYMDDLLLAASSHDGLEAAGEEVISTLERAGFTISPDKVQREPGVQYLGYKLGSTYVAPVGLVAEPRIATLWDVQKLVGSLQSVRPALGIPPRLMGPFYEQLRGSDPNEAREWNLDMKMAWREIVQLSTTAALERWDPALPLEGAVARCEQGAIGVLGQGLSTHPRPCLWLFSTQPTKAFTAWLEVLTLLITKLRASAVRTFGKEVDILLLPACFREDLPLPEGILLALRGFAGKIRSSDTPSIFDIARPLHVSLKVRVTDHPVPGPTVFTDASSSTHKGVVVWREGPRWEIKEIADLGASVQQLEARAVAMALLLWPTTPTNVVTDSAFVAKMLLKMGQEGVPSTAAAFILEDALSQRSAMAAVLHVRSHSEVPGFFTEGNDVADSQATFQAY
T2 sequence 2: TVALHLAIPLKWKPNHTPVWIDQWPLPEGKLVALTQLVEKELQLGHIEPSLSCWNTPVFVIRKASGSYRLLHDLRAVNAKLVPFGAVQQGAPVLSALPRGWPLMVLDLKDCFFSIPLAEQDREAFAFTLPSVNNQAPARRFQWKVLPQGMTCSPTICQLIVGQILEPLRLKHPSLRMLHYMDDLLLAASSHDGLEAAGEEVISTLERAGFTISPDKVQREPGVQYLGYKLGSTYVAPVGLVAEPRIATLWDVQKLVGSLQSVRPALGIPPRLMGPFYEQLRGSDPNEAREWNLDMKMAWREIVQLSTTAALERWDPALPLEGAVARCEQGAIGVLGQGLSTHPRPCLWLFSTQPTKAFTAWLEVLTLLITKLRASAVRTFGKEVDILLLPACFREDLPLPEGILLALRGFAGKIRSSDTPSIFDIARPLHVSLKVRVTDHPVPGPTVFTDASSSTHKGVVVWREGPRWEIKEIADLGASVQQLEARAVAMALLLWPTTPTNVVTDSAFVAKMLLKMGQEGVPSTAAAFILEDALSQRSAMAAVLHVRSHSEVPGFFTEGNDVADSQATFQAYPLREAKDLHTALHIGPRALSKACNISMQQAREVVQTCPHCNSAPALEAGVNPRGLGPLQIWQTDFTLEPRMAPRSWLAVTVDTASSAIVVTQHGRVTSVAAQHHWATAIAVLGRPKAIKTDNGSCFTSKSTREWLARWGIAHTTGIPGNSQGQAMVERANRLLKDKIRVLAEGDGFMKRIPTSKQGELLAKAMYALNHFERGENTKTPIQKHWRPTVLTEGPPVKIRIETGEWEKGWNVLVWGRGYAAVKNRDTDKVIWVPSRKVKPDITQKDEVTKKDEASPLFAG

The target in data set [3] is MuLV RT (Moloney murine leukemia virus) (UniProt P03355).

Turning to Random DNA, the Kd in the data set with HIV RT (HIV) amounted to 106 nM; in data set [1], 62 nM; in data set [2], 20 nM; in data set [3], 116 nM.
